Test results taken from patent publication US20190381086A1 (Scripps Research, published 2019).

B1: APPBP1 in HEK293 cells (endogenous) (enzyme, UniProt Q13564 2-534, looked up)
chain: AQLGKLLKEQKYDRQLRLWGDHGQEALESAHVCLINATATGTEILKNLVLPGIGSFTIIDGNQVSGEDAGNNFFLQRSSIGKNRAEAAMEFLQELNSDVSGSFVEESPENLLDNDPSFFCRFTVVVATQLPESTSLRLADVLWNSQIPLLICRTYGLVGYMRIIIKEHPVIESHPDNALEDLRLDKPFPELREHFQSYDLDHMEKKDHSHTPWIVIIAKYLAQWYSETNGRIPKTYKEKEDFRDLIRQGILKNENGAPEDEENFEEAIKNVNTALNTTQIPSSIEDIFNDDRCINITKQTPSFWILARALKEFVAKEGQGNLPVRGTIPDMIADSGKYIKLQNVYREKAKKDAAAVGNHVAKLLQSIGQAPESISEKELKLLCSNSAFLRVVRCRSLAEEYGLDTINKDEIISSMDNPDNEIVLYLMLRAVDRFHKQQGRYPGVSNYQVEEDIGKLKSCLTGFLQEYGLSVMVKDDYVHEFCRYGAAEPHTIAAFLGGAAAQEVIKIITKQFVIFNNTYIYSGMSQTSATFQL
B2: ABD (V541-E685) of GlyRS (enzyme)
chain: VREGDEQRTFFSFPAVVAPFKCSVLPLSQNQEFMPFVKELSEALTRHGVSHKVDDSSGSIGRRYARTDEIGVAFGVTIDFDTVNKTPHTATLRDRDSMRQIRAEISELPSIVQDLANGNITWADVEARYPLFEGQETGKKETIEE
notes: Cloned, expressed and purified in a similar way as the full-length GlyRS; also called ABD GlyRS; ABD domain alone
B3: ΔWHEP GlyRS (enzyme)
chain: IVDRAKMEDTLKRRFFYDQAFAIYGGVSGLYDFGPVGCALKNNIIQTWRQHFIQEEQILEIDCTMLTPEPVLKTSGHVDKFADFMVKDVKNGECFRADHLLKAHLQKLMSDKKCSVEKKSEMESVLAQLDNYGQQELADLFVNYNVKSPITGNDLSPPVSFNLMFKTFIGPGGNMPGYLRPETAQGIFLNFKRLLEFNQGKLPFAAAQIGNSFRNEISPRSGLIRVREFTMAEIEHFVDPSEKDHPKFQNVADLHLYLYSAKAQVSGQSARKMRLGDAVEQGVINNTVLGYFIGRIYLYLTKVGISPDKLRFRQHMENEMAHYACDCWDAESKTSYGWIEIVGCADRSCYDLSCHARATKVPLVAEKPLKEPKTVNVVQFEPSKGAIGKAYKKDAKLVMEYLAICDECYITEMEMLLNEKGEFTIETEGKTFQLTKDMINVKRFQKTLYVEEVVPNVIEPSFGLGRIMYTVFEHTFHVREGDEQRTFFSFPAVVAPFKCSVLPLSQNQEFMPFVKELSEALTRHGVSHKVDDSSGSIGRRYARTDEIGVAFGVTIDFDTVNKTPHTATLRDRDSMRQIRAEISELPSIVQDLANGNITWADVEARYPLFEGQETGKKETIEE
notes: also called AWHEP GlyRS; core synthetase; not shown: His tag
B4: His-tagged human TrpRS (tryptophanyl-tRNA synthetase) (enzyme, UniProt P23381 1-471, looked up)
chain: MPNSEPASLLELFNSIATQGELVRSLKAGNASKDEIDSAVKMLVSLKMSYKAAAGEDYKADCPPGNPAPTSNHGPDATEAEEDFVDPWTVQTSSAKGIDYDKLIVRFGSSKIDKELINRIERATGQRPHHFLRRGIFFSHRDMNQVLDAYENKKPFYLYTGRGPSSEAMHVGHLIPFIFTKWLQDVFNVPLVIQMTDDEKYLWKDLTLDQAYSYAVENAKDIIACGFDINKTFIFSDLDYMGMSSGFYKNVVKIQKHVTFNQVKGIFGFTDSDCIGKISFPAIQAAPSFSNSFPQIFRDRTDIQCLIPCAIDQDPYFRMTRDVAPRIGYPKPALLHSTFFPALQGAQTKMSASDPNSSIFLTDTAKQIKTKVNKHAFSGGRDTIEEHRQFGGNCDVDVSFMYLTFFLEDDDKLEQIRKDYTSGAMLTGELKKALIEVLQPLIAEHQARRKEVTDEIVKEFMTPRKLSFDFQ
notes: not shown: His tag
B5: full-length human GlyRS (enzyme)
chain: MDGAGAEEVLAPLRLAVRQQGDLVRKLKEDKAPQVDVDKAVAELKARKRVLEAKELALQPKDDIVDRAKMEDTLKRRFFYDQAFAIYGGVSGLYDFGPVGCALKNNIIQTWRQHFIQEEQILEIDCTMLTPEPVLKTSGHVDKFADFMVKDVKNGECFRADHLLKAHLQKLMSDKKCSVEKKSEMESVLAQLDNYGQQELADLFVNYNVKSPITGNDLSPPVSFNLMFKTFIGPGGNMPGYLRPETAQGIFLNFKRLLEFNQGKLPFAAAQIGNSFRNEISPRSGLIRVREFTMAEIEHFVDPSEKDHPKFQNVADLHLYLYSAKAQVSGQSARKMRLGDAVEQGVINNTVLGYFIGRIYLYLTKVGISPDKLRFRQHMENEMAHYACDCWDAESKTSYGWIEIVGCADRSCYDLSCHARATKVPLVAEKPLKEPKTVNVVQFEPSKGAIGKAYKKDAKLVMEYLAICDECYITEMEMLLNEKGEFTIETEGKTFQLTKDMINVKRFQKTLYVEEVVPNVIEPSFGLGRIMYTVFEHTFHVREGDEQRTFFSFPAVVAPFKCSVLPLSQNQEFMPFVKELSEALTRHGVSHKVDDSSGSIGRRYARTDEIGVAFGVTIDFDTVNKTPHTATLRDRDSMRQIRAEISELPSIVQDLANGNITWADVEARYPLFEGQETGKKETIEE
notes: A tag-free preparation is described (N-terminal His-SUMO tag removed by Ulp1); the His-tagged preparation may have been used in some of those; also called full-length GlyRS; tag-free full-length GlyRS
B6: His-tagged full-length human GlyRS (glycyl-tRNA synthetase) (enzyme)
chain: B5 chain
notes: also called His-tagged GlyRS; purified human GlyRS protein; not shown: His tag
B7: GST-Ubc12 (enzyme)
chain: MIKLFSLKQQKKEEESAGGTKGSSKKASAAQLRIQKDINELNLPKTCDISFSDPDDLLNFKLVICPDEGFYKSGKFVFSFKVGQGYPHDPPKVKCETMVYHPNIDLEGNVCLNILREDWKPVLTINSIIYGLQYLFLEPNPEDPLNKEAAEVLQNNRRLFEQNVQRSMRGGYIGSTYFERCLK
modifications: N-terminal GST fusion, not carried in the letters
notes: Bait on glutathione beads in the GST pull-down; Band between 42 and 57 kDa in the input blot; also called GST-tagged Ubc12; not shown: GST tag and the linker to Ubc12
B8: Ubc12 (enzyme, UniProt P61081 1-183, looked up)
chain: B7 chain
notes: GST-tagged or untagged preparations are mentioned; also called Ubc12 alone; apo Ubc12

Columns and labels:
[1] = molecular target: T1, GlyRS in HEK293 cells (endogenous) (human, UniProt P41250 55-739, limits assumed); experiment: co-immunoprecipitation, HEK293 cells
T1 sequence: B5 chain

GST-APPBP1 = molecular target: T2, GST-APPBP1 (UniProt Q13564 1-534, limits assumed); experiment: biolayer interferometry, APPBP1 immobilized, ABD GlyRS 0.58-4.6 µM
T2 construct: Fractions of a Superdex 200 run of GST-APPBP1/UBA3 that held only GST-APPBP1; also called APPBP1 subunit alone; E1 regulatory subunit APPBP1; not shown: GST tag
T2 sequence (looked up): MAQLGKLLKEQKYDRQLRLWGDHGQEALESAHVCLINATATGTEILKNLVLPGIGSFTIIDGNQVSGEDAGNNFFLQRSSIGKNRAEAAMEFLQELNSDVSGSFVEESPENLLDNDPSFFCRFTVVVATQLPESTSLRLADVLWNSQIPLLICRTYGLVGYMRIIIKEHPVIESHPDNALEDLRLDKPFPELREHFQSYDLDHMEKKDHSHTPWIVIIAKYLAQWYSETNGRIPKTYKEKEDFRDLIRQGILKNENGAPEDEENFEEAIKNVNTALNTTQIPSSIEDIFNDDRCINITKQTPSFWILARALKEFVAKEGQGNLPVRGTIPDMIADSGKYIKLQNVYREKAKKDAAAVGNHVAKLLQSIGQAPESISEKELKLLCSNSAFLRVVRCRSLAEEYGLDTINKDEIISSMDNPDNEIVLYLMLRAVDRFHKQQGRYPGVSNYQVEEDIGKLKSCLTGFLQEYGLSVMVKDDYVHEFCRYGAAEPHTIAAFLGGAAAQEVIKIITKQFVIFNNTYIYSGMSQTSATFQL

[2] = molecular target: T3, E1 for neddylation, APPBP1/UBA3 heterodimer (UniProt Q13564 1-534; Q8TBC4 22-463); experiment: biolayer interferometry, E1 (APPBP1/UBA3) immobilized, analyte 62.5-500 nM
T3 construct: GST-tagged or untagged preparations are mentioned; also called GST-APPBP1/UBA3; NAE; not shown: GST tag on APPBP1 (GST-APPBP1/UBA3)
T3 sequence (looked up) 1: T2 sequence (looked up)
T3 sequence (looked up) 2: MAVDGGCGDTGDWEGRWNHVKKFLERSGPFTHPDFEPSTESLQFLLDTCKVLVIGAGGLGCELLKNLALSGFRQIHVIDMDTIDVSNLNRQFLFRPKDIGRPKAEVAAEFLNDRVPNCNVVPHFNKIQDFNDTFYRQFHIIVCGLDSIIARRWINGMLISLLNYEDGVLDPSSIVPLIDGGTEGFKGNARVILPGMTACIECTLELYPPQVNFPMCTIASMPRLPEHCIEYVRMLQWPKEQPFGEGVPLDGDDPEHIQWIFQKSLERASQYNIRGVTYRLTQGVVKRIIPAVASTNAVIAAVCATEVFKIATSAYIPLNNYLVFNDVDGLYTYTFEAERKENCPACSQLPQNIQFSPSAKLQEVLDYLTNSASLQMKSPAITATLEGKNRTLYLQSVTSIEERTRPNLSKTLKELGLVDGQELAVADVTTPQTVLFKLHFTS

ubiquitin = molecular target: T4, ubiquitin (UniProt P0CG48 1-76); experiment: His-tag pull-down
T4 construct: Bought protein

ABD (V541-E685) of GlyRS = molecular target: B2; experiment: GST pull-down on glutathione beads, blot anti-GlyRS
[3] = molecular target: T5, N-terminal GST-tagged GlyRS (human, UniProt P41250 55-739); experiment: biolayer interferometry (Octet), GlyRS immobilized, 30°C
T5 construct: also called GST-GlyRS; immobilized GlyRS; not shown: N-terminal GST tag from a modified pET28a vector
T5 sequence: B5 chain

B1
binding result [1]: binds

B2
Kd (GST-APPBP1): 0.144 µM | Kd [2]: 0.187 µM

B3
Kd [2]: 0.177 µM

B4
binding result (ubiquitin): no binding

B5
Kd [2]: 0.159 µM

B6
binding result (ubiquitin): no binding

B7
binding result (ABD (V541-E685) of GlyRS): no binding

B8
Kd [3]: 0.488 µM
